Key:
[1] = target: T1, human IL-1β (human, UniProt P01584 117-269); test: cell-based or functional assay
[2] = target: T2, mouse IL-1β (mouse, UniProt P10749 118-269); test: BIAcore, antibody captured on anti-IgG chip, ligand flowed
T2 sequence (looked up): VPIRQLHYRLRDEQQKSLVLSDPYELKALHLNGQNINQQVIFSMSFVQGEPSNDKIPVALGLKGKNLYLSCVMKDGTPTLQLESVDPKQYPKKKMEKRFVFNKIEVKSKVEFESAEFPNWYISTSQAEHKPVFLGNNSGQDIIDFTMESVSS
Protocol: (§1) Affinities and specificities of both Hu007 and Mu007 were determined using BlAcore measurements. BIAcore™ is an automated biosensor system that measures molecular interactions. (Karlsson, et al. (1991) J. Immunol. Methods 145: 229-240). In these experiments antibody was immobilized at low density on a BIAcore™ chip. Ethyl-dimethylaminopropyl-carbodiimide (EDC) was used to couple reactive amino groups to purified goat anti-human IgG or goat anti-rabbit IgG to a flow cell of a carboxy-methyl (CM5) BIAcore™ sensor chip. Goat IgG was diluted in sodium acetate buffer, pH 4.0, and immobilized on a flow cell of a CM5 chip using EDC to yield 1000 response units. Unreacted sites were blocked with ehanolamine. A flow rate of 60 μL/min was used. Multiple binding/elution cycles were performed by injection a 100 μL solution of 15 μg/mL Mu007 or Hu007 followed by human IL-1β, mouse IL-1β, rat IL-1β, cynomolgus monkey IL-1β, porcine IL-1β, human IL-1 receptor antagonist, and human IL-1α at decreasing concentrations for each cycle (e.g., 1500, 750, 375, 188, 94, 47, 23.5, 12, and 0 picomolar). Elution was performed with glycine-HCl, pH 1.5. BIAevaluation™ was used to analyze the kinetic data. Table 2 depicts the affinities of Hu007 and Mu007 for human and cynomolgus IL-1β. […] Cynomolgus and porcine IL-1β had 100% binding to Hu007 relative to human IL-1β.

[3] = target: T3, rat IL-1β (rat, UniProt Q63264 117-268); test: as above
T3 sequence (looked up): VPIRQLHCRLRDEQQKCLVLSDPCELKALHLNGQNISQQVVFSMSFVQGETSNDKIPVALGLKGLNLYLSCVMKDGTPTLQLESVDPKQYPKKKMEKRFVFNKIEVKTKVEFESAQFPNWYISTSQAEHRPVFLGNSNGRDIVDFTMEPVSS
Protocol: as §1

[4] = target: T4, human IL-1 receptor antagonist (human, UniProt P18510 26-177); test: as above
T4 construct: also called IL-1ra
Protocol: as §1

[5] = target: T5, human IL-1α (human, UniProt P01583 113-271); test: as above
T5 sequence (looked up): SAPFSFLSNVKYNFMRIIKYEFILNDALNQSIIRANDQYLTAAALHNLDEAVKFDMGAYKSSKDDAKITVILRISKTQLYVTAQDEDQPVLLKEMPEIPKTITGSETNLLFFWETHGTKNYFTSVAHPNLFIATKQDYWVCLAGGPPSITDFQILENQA
Protocol: as §1

[6] = target: T1, human IL-1β; test: competition ELISA on coated human IL-1β against biotinylated Mu007, Exp. A
Protocol: (§2) Wells of 96-well ELISA plates (Nunc-lmmuno plate, Cat # 439454, NalgeNunc) were coated with 100 μL of 0.5. μg/mL of human IL-1β in 0.2M sodium carbonate-bicarbonate buffer (pH 9.4) overnight at 4° C., washed with Wash Buffer, blocked with Superblock blocking buffer for 30 min at 37° C., and washed again with Wash Buffer. A mixture of biotinylated Mu007 (0.16 μg/mL final concentration) and competitor antibody (Mu007, Hu007, or Hu007 analogs starting at 100 μg/mL final concentration and serial 3-fold dilutions) in ELISA Buffer were added in triplicate in a final volume of 100 μL per well. As a no-competitor control, 100 μL of 0.16 μg/mL biotinylated Mu007 was used. As a background control, 100 gLL of ELISA Buffer was used. ELISA plates were incubated at 37° C. for 2 hr. After washing the wells with Washing Buffer, 100 μL of 1 μg/mL HRP-conjugated streptavidin (Jackson ImmunoResearch) was added to each well. ELISA plates were incubated at room temperature for 30 min and washed with Washing Buffer. For color development, 100 μL/well of ABTS substrate was added. Color development was stopped by adding 100 μL/well of 2% oxalic acid. Absorbance was read at 415 nm.
(§3) Mu007, Hu007 and Hu007 analogs competed with biotinylated Mu007 in a concentration-dependent manner. The IC₅₀ values of Mu007 and Hu007 in three independent ELISA competition experiments, obtained using the computer software Prism (GraphPad Software Inc., San Diego, Calif.) are shown in Table 1. The relative binding of Hu007 was on average 89% of Mu007.

[7] = target: T1, human IL-1β; test: competition ELISA on coated human IL-1β against biotinylated Mu007, Exp. B
Protocol: as §2, §3

[8] = target: T1, human IL-1β; test: competition ELISA on coated human IL-1β against biotinylated Mu007, Exp. C
Protocol: as §2, §3

[9] = target: T1, human IL-1β; test: competition ELISA on coated human IL-1β against biotinylated Mu007, average
Protocol: as §2
(§4) Mu007, Hu007 and Hu007 analogs competed with biotinylated Mu007 in a concentration-dependent manner. […]

[10] = target: T1, human IL-1β; test: competition ELISA on coated human IL-1β against biotinylated Mu007, average of three experiments
Protocol: as §2, §4

T4 sequence (P18510 26-177 limits assumed): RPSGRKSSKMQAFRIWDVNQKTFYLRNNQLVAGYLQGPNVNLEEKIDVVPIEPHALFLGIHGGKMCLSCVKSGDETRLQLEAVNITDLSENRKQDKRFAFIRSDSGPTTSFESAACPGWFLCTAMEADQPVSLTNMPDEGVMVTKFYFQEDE

- IC50, inhibition of human IL-1β stimulated proliferation [1]: 57 Picomolar
- binding result [2]: no binding
- binding result [3]: no binding
- binding result [4]: no binding
- binding result [5]: no binding
- Hu007/Mu007 × 100 (IC50 ratio, relative binding against Mu007) [6]: 98%
- IC50 [6]: 0.39 µg/mL
- Hu007/Mu007 × 100 (IC50 ratio, relative binding against Mu007) [7]: 88%
- IC50 [7]: 0.35 µg/mL
- Hu007/Mu007 × 100 (IC50 ratio, relative binding against Mu007) [8]: 82%
- IC50 [8]: 0.32 µg/mL
- Hu007/Mu007 × 100 (IC50 ratio, relative binding against Mu007) [9]: 89%
- IC50 [10]: 0.35 µg/mL
B1: humanized antibody Hu007 (antibody, human IgG1, kappa, V domains shown)
VH: QVQLVQSGAEVKKPGASVKVSCKVSGYTFSRYWIEWVRQAPGKGLEWIGEILPGNGNINYNEKFKGKATITADTSTDTAYMELSSLRSEDTAVYYCSTIYYDYDQGFTYWGQGTLVTVSS
VL: DIQMTQSPSSLSASVGDRVTITCKASQDIDRYLSWFQQKPGKAPKSLIYRVKRLVDGVPSRFSGSASGTDYTLTISSLQPEDFATYYCLQYDEFPYTFGQGTKLEIKR
notes: Human IgG1 kappa; also called WT; Hu007 WT
